This data set concerns the molecule itself. The data set can be described thus: cryo-EM structure; dual motor condition (surface-anchored myosin-5 and myosin-6, 1 μM ATP) on holey carbon grids; 0.6 μM F-actin, 1 μM α-catenin ABD applied in Motility Buffer (20 mM MOPS pH 7.4, 5 mM MgCl2, 0.1 mM EGTA, 1 mM DTT) for 30 s, 25 °C; sub-saturating α-catenin; consensus and 3DVA-sorted reconstructions.

B1: C-terminal actin-binding domain (ABD) of human α-catenin (AA 664-906) (domain or fragment, UniProt P35221 664-906, looked up)
chain: IAGQSARAIMAQLPQEQKAKIAEQVASFQEEKSKLDAEVSKWDDSGNDIIVLAKQMCMIMMEMTDFTRGKGPLKNTSDVISAAKKIAEAGSRMDKLGRTIADHCPDSACKQDLLAYLQRIALYCHQLNICSKVKAEVQNLGGELVVSGVDSAMSLIQAAKNLMNAVVQTVKASYVASTKYQKSQGMASLNLPAVSWKMKAPEKKPLVKREKQDETQTKIKRASQKKHVNPVQALSEFKAMDSI
notes: Tags were removed with TEV protease; also called α-catenin ABD; αE-catenin ABD; source: E. coli Rosetta2(DE3), purified (Ni-NTA, TEV cleavage, anion exchange, size exclusion); not shown: 6XHis, N-terminal, cleaved; strep tag, N-terminal, cleaved
As to B1, the binding result was “binds”.

(Values after publication doi:10.1101/2024.08.15.608188, “Myosin forces elicit an F-actin structural landscape that mediates mechanosensitive protein recognition” (bioRxiv, 2024).)
